According to paper PMC8715031, “Fusion of Chitin-Binding Domain From Chitinolyticbacter meiyuanensis SYBC-H1 to the Leaf-Branch Compost Cutinase for Enhanced PET Hydrolysis” (Frontiers in Bioengineering and Biotechnology, 2021):

Substrate: CCCC(=O)Oc1ccc([N+](=O)[O-])cc1
Assay: purified protein
Assay type: biochemical, unidentified prokaryotic organism
Conditions: 50 mM phosphate buffer pH 8.0, isopropanol as substrate solvent, temperature not stated

Protein | Km [µM] | kcat [s⁻¹] | kcat/Km [M⁻¹ s⁻¹]
LCC^ICCG (unidentified prokaryotic organism; D238C/F243I/S283C/Y127G) (protein, ICCG variant of LCC, synthetic gene in pET-29a, C-terminal His6-tag, E. coli BL21(DE3), Ni-NTA purified) QSNPYQRGPNPTRSALTADGPFSVATYTVSRLSVSGFGGGVIYYPTGTSLTFGGIAMSPGYTADASSLAWLGRRLASHGFVVLVINTNSRFDGPDSRASQLSAALNYLRTSSPSAVRARLDANRLAVAGHSMGGGGTLRIAEQNPSLKAAVPLTPWHTDKTFNTSVPVLIVGAEADTVAPVSQHAIPFYQNLPSTTPKVYVELCNASHIAPNSNNAAISVYTISWMKLWVDNDTRYRQFLCNVNDPALCDFRTNNRHCQ | 126.3 | 67.5 | 534000
LCC^ICCG-ChBD (unidentified prokaryotic organism; D238C/F243I/S283C/Y127G) (protein, C-terminal His6-tag; pET-29a, E. coli BL21(DE3), Ni-NTA purified; Chitinolyticbacter meiyuanensis SYBC-H1) QSNPYQRGPNPTRSALTADGPFSVATYTVSRLSVSGFGGGVIYYPTGTSLTFGGIAMSPGYTADASSLAWLGRRLASHGFVVLVINTNSRFDGPDSRASQLSAALNYLRTSSPSAVRARLDANRLAVAGHSMGGGGTLRIAEQNPSLKAAVPLTPWHTDKTFNTSVPVLIVGAEADTVAPVSQHAIPFYQNLPSTTPKVYVELCNASHIAPNSNNAAISVYTISWMKLWVDNDTRYRQFLCNVNDPALCDFRTNNRHCQ | 141.8 | 68.4 | 404000
